The record followed here is IntAct's records for PubMed 16316992.

Assay [1] addresses magi3_human MAGI3 (UniProt Q5TCQ9).
Assay [2] shares this target. This is another data set of the same source.

Sequence of magi3_human MAGI3 (Q5TCQ9 whole entry): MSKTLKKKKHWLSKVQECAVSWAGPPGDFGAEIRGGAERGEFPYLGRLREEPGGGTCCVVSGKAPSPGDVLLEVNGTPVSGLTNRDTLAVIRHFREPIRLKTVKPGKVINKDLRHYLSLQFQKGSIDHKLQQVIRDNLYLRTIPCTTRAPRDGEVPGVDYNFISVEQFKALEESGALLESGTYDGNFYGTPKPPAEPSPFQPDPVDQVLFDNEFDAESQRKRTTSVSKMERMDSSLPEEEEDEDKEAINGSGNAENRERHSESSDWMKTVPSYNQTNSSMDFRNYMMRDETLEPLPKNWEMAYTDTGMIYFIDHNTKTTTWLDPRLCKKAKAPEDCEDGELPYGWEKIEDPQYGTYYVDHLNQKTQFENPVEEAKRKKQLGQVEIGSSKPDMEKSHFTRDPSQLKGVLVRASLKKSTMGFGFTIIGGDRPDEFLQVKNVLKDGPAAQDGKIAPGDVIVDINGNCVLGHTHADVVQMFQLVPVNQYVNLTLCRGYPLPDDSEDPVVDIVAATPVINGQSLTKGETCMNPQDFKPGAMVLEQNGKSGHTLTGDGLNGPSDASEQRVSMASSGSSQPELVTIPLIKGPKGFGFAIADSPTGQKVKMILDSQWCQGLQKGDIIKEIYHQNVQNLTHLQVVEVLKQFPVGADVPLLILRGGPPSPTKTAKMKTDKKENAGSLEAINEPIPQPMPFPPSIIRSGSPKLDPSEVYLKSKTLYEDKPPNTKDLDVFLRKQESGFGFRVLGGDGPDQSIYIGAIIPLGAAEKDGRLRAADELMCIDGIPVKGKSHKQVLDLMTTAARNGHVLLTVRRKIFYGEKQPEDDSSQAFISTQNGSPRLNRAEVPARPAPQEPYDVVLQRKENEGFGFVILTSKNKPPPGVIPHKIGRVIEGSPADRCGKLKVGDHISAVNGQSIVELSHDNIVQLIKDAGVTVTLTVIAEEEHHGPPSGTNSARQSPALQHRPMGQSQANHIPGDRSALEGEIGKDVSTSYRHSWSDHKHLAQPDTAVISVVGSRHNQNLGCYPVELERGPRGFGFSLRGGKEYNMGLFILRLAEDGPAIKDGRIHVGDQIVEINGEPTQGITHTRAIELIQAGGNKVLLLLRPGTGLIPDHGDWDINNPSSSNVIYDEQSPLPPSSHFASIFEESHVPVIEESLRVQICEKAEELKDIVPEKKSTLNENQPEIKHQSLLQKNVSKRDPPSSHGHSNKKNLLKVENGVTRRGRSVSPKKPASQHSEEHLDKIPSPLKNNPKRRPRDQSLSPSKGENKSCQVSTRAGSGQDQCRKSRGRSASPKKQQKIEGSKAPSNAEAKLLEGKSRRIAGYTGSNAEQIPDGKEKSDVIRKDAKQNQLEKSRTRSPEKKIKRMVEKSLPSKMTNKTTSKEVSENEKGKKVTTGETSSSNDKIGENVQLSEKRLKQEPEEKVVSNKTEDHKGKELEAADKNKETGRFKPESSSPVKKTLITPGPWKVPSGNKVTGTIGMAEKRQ
Sequence of Beta-1 adrenergic receptor (Homo sapiens), P08588 E474A (P08588 whole entry E474A): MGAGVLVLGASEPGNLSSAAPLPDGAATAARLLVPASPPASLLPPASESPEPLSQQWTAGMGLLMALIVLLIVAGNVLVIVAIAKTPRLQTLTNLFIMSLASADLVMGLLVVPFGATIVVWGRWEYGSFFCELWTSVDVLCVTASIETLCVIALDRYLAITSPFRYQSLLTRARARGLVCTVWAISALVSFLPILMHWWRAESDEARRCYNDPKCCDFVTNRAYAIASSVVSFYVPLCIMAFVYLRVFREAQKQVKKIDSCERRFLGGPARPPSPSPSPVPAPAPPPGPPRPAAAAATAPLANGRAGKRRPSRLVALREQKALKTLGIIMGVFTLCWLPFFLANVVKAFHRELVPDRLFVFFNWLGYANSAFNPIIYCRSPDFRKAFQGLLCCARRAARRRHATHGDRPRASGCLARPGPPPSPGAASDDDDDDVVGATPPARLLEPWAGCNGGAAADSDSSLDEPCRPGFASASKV
Sequence of Beta-1 adrenergic receptor (Homo sapiens), P08588 E474T (P08588 whole entry E474T): as the sequence (P08588 whole entry E474A) above, with A474T counted along it
Sequence of Beta-1 adrenergic receptor (Homo sapiens), P08588 V477A (P08588 whole entry V477A): as the sequence (P08588 whole entry E474A) above, with A474E, V477A counted along it
Sequence of Beta-1 adrenergic receptor (Homo sapiens), P08588 V477I (P08588 whole entry V477I): as the sequence (P08588 whole entry E474A) above, with A474E, V477I counted along it
Sequence of Beta-1 adrenergic receptor (Homo sapiens), P08588 V477L (P08588 whole entry V477L): as the sequence (P08588 whole entry E474A) above, with A474E, V477L counted along it
Sequence of Beta-1 adrenergic receptor (Homo sapiens), P08588 K476R (P08588 whole entry K476R): as the sequence (P08588 whole entry E474A) above, with A474E, K476R counted along it
Sequence of Beta-1 adrenergic receptor (Homo sapiens), P08588 V477M (P08588 whole entry V477M): as the sequence (P08588 whole entry E474A) above, with A474E, V477M counted along it
Sequence of Beta-1 adrenergic receptor (Homo sapiens), P08588 S475A (P08588 whole entry S475A): as the sequence (P08588 whole entry E474A) above, with A474E, S475A counted along it

As for “Beta-1 adrenergic receptor (Homo sapiens), P08588 E474A”, in the assay with magi3_human MAGI3 [1], the “effect of a mutation on the interaction” value is reported as “decreasing interaction”.
With “Beta-1 adrenergic receptor (Homo sapiens), P08588 E474T”, the “effect of a mutation on the interaction” value with magi3_human MAGI3 [1] is recorded as “decreasing interaction”.
Still for that read-out and setting: as for “Beta-1 adrenergic receptor (Homo sapiens), P08588 K476R”, the entry is “decreasing interaction”.
The same measure, in the same setting: as for “Beta-1 adrenergic receptor (Homo sapiens), P08588 S475A”, the entry is “decreasing interaction”; as for “Beta-1 adrenergic receptor (Homo sapiens), P08588 V477A”, “decreasing interaction”.
For “Beta-1 adrenergic receptor (Homo sapiens), P08588 V477I”, in the assay with magi3_human MAGI3 [2], the “effect of a mutation on the interaction” value was “decreasing interaction”.
As for “Beta-1 adrenergic receptor (Homo sapiens), P08588 V477L”, the “effect of a mutation on the interaction” value in the assay with magi3_human MAGI3 [2] is listed as “decreasing interaction”.
The same measure, in the same setting: as for “Beta-1 adrenergic receptor (Homo sapiens), P08588 V477M”, the entry is “decreasing interaction”.
